The text below walks through data of paper PMC5025888 (Scientific Reports, 2016).

The target of assay [1] is H5N1-NS1-24mer (Influenza A virus …). The assay is described as follows: ELISA. The note with it: both partners purified.
For assay [2], the target named is H1N1-PR8-NS1(RBD) (Influenza A virus A/Puerto …, UniProt P03496). The assay is described as follows: ELISA. The note with it: both partners purified.
Sequence of H1N1-PR8-NS1(RBD) (P03496 1-70): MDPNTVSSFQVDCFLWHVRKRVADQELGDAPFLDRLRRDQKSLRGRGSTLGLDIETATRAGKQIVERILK

Sequence of H5N1-NS1-24mer (Influenza A virus …) (O57276 30-53): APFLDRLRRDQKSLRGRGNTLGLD

B1: monoclonal antibody 2H6 (antibody, V domains shown)
VH: DVKLVESGGGLVNLGGSLKLSCAASGFTFSRYYMSWVRQTPEKRLELVAAINHNSGRTYYSDTVKGRFTISRDNAKNTLYLQMSSLKSEDTALYYCTRHPLIYHGNYLDYWGQGTTLTVSS
VL: DIVLTQSPASLAVSLGQRATISCKASQSVDYDGDSYVTWYQQKPGQPPKLLIYVASNLESGIPARFSGSGSGTDFTLNIHPVEEEDAATYYCQQSNEDPWTFGGGTKLEIK
For the molecule B1, the binding result in assay [1] and in assay [2] was “binds” in each case.
